Results reported in the supplement of paper PMC10567573.

B1: ANKRD40 (parent)
chain: VCCCELGVNPDQVEKIRKLPNTLL
B2: SNX8 (parent)
chain: RMVPALPPKRMLGADREFIEARRR
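Further: lentivirally expressed fusions sorted by FACS into six bins by GFP to DsRed ratio, PSI derived from sequencing read proportions per bin multiplied by bin number.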

Variants of: B1
Assay: protein stability index of a GFP-peptide fusion (GPS, HEK-293T) (PSI 1-6); higher = more stable
Conditions: c terminus: a fixed tail appended
VCCCELGVNPDQVEMIRKLPNTLL gave a protein stability index of 1.76. For VCCCELGVNPDQVERIRKLPNTLL, the protein stability index was 2.21. Work on VCCCELGVNPDQVEGIRKLPNTLL yielded a protein stability index of 1.41. In the case of VCCCELGVNPDQVEIIRKLPNTLL, the protein stability index is reported as 1.39. VCCCELGVNPDQVEVIRKLPNTLL showed a protein stability index of 2.12. Work on VCCCELGVNPDQVEQIRKLPNTLL yielded a protein stability index of 2.23. In the case of VCCCELGVNPDQVEYIRKLPNTLL, the protein stability index is reported as 2.09. In the case of VCCCELGVNPDQVEHIRKLPNTLL, the protein stability index is reported as 1.36. VCCCELGVNPDQVELIRKLPNTLL gave a protein stability index of 2.34. In the case of VCCCELGVNPDQVENIRKLPNTLL, the protein stability index is reported as 1.94. With VCCCELGVNPDQVEWIRKLPNTLL the protein stability index was 2.53. Variant VCCCELGVNPDQVESIRKLPNTLL has a protein stability index of 2.34. With VCCCELGVNPDQVETIRKLPNTLL the protein stability index was 1.66. VCCCELGVNPDQVEFIRKLPNTLL gave a protein stability index of 2.06. Work on VCCCELGVNPDQVEKIRKLPNTRL yielded a protein stability index of 1.66. VCCCELGVNPDQVEKIRKLPNTEL gave a protein stability index of 3.05. For VCCCELGVNPDQVEKIRKLPNTPL, the protein stability index was 2.75. With VCCCELGVNPDQVEKIRKLPNTHL the protein stability index was 2.67. With VCCCELGVNPDQVEKIRKLPNTYL the protein stability index was 1.45. Work on VCCCELGVNPDQVEKIRKLPNTDL yielded a protein stability index of 2.31. In the case of VCCCELGVNPDQVEKIRKLPNTNL, the protein stability index is reported as 2.05. With VCCCELGVNPDQVEKIRKLPNTSL the protein stability index was 2.25. VCCCELGVNPDQVEKIRKLPNTCL gave a protein stability index of 1.71. VCCCELGVNPDQVEKIRKLPNTTL gave a protein stability index of 2.33. VCCCELGVNPDQVEKIRKLPNTGL gave a protein stability index of 2.51. Work on VCCCELGVNPDQVEKIRKLPNTAL yielded a protein stability index of 1.98. VCCCELGVNPDQVEKIRKLPNTIL gave a protein stability index of 1.6. With VCCCELGVNPDQVEKIRKLPNTVL the protein stability index was 2.25. VCCCELGVNPDQVEKIRKLPNTFL gave a protein stability index of 1.51. Work on VCCCELGVNPDQVEKIRKLPNTKL yielded a protein stability index of 2.36. In the case of VCCCELGVNPDQVEKIRKLPNTML, the protein stability index is reported as 1.89. Work on VCCCELGVNPDQVEKIRKLPNTQL yielded a protein stability index of 2.35. VCCCELGVNPDQVEKIRKLPNTWL gave a protein stability index of 2.9. In the case of VCCCELGVNPDQVEKIRKLPHTLL, the protein stability index is reported as 1.83. Work on VCCCELGVNPDQVEKIRKLPFTLL yielded a protein stability index of 1.95. VCCCELGVNPDQVEKIRKLPQTLL showed a protein stability index of 1.74. For VCCCELGVNPDQVEKIRKLPLTLL, the protein stability index was 1.94. With VCCCELGVNPDQVEKIRKLPWTLL the protein stability index was 1.32. For VCCCELGVNPDQVEKIRKLPTTLL, the protein stability index was 2.04. With VCCCELGVNPDQVEKIRKLPYTLL the protein stability index was 2.47. Variant VCCCELGVNPDQVEKIRKLPVTLL has a protein stability index of 1.83. VCCCELGVNPDQVEKIRKLPGTLL showed a protein stability index of 1.45. With VCCCELGVNPDQVEKIRKLPITLL the protein stability index was 2.15. In the case of VCCCELGVNPDQVEKIRKLPETLL, the protein stability index is reported as 2.02. With VCCCELGVNPDQVEKIRKLPATLL the protein stability index was 1.7. VCCCELGVNPDQVEKIRKLPCTLL showed a protein stability index of 2.21. Variant VCCCELGVNPDQVEKIRKLPMTLL has a protein stability index of 1.84. Work on VCCCELGVNPDQVEKIRKLPPTLL yielded a protein stability index of 1.83. For VCCCELGVNPDQVEKIRKLPRTLL, the protein stability index was 1.34. VCCCELGVNPDQVEKIRKLPKTLL showed a protein stability index of 3.13. VCCCELGVNPDQVEKIRKLPSTLL gave a protein stability index of 1.9. VCCCELGVNPDQVEKIRKLPDTLL showed a protein stability index of 2.43. Variant VCCCELGVNPDQVEKIRKLPNWLL has a protein stability index of 2.01. Variant VCCCELGVNPDQVEKIRKLPNELL has a protein stability index of 2.64. For VCCCELGVNPDQVEKIRKLPNILL, the protein stability index was 2.06. In the case of VCCCELGVNPDQVEKIRKLPNSLL, the protein stability index is reported as 1.79. In the case of VCCCELGVNPDQVEKIRKLPNLLL, the protein stability index is reported as 2.73. VCCCELGVNPDQVEKIRKLPNHLL showed a protein stability index of 1.8. In the case of VCCCELGVNPDQVEKIRKLPNPLL, the protein stability index is reported as 2.21. Work on VCCCELGVNPDQVEKIRKLPNCLL yielded a protein stability index of 1.72. Variant VCCCELGVNPDQVEKIRKLPNDLL has a protein stability index of 2.5. In the case of VCCCELGVNPDQVEKIRKLPNALL, the protein stability index is reported as 2.09. VCCCELGVNPDQVEKIRKLPNKLL gave a protein stability index of 2.1. VCCCELGVNPDQVEKIRKLPNRLL gave a protein stability index of 2.02. With VCCCELGVNPDQVEKIRKLPNFLL the protein stability index was 2.2. VCCCELGVNPDQVEKIRKLPNGLL showed a protein stability index of 1.51. Variant VCCCELGVNPDQVEKIRKLPNNLL has a protein stability index of 1.71. VCCCELGVNPDQVEKIRKLPNYLL gave a protein stability index of 1.63. In the case of VCCCELGVNPDQVEKIRKLPNVLL, the protein stability index is reported as 1.33. In the case of VCCCELGVNPDQVEKIRKLPNQLL, the protein stability index is reported as 1.63. VCCCELGVNPDQVEKIRKLPNMLL showed a protein stability index of 2.1. For VCCCELGVNPDQVEKIRKLPNTLI, the protein stability index was 1.95. In the case of VCCCELGVNPDQVEKIRKLPNTLS, the protein stability index is reported as 2.49. VCCCELGVNPDQVEKIRKLPNTLP gave a protein stability index of 2.12. With VCCCELGVNPDQVEKIRKLPNTLD the protein stability index was 3.15. For VCCCELGVNPDQVEKIRKLPNTLH, the protein stability index was 2.02. VCCCELGVNPDQVEKIRKLPNTLN showed a protein stability index of 2.61. With VCCCELGVNPDQVEKIRKLPNTLA the protein stability index was 1.71. Work on VCCCELGVNPDQVEKIRKLPNTLK yielded a protein stability index of 2.09. Work on VCCCELGVNPDQVEKIRKLPNTLF yielded a protein stability index of 2.04. VCCCELGVNPDQVEKIRKLPNTLV showed a protein stability index of 1.96. In the case of VCCCELGVNPDQVEKIRKLPNTLE, the protein stability index is reported as 2.62. In the case of VCCCELGVNPDQVEKIRKLPNTLG, the protein stability index is reported as 2.56. Work on VCCCELGVNPDQVEKIRKLPNTLT yielded a protein stability index of 1.94. In the case of VCCCELGVNPDQVEKIRKLPNTLQ, the protein stability index is reported as 2.48. With VCCCELGVNPDQVEKIRKLPNTLM the protein stability index was 1.8. Variant VCCCELGVNPDQVEKIRKLPNTLR has a protein stability index of 1.38. Work on VCCCELGVNPDQVEKIRKLPNTLY yielded a protein stability index of 1.84. Variant VCCCELGVNPDQVEKIRKLPNTLW has a protein stability index of 2.1. In the case of VCCCELGVNPDQVEKIRKLPNTLC, the protein stability index is reported as 2.12.

Variants of: B2
Assay: as above
Conditions: c terminus: a fixed tail appended
Work on DMVPALPPKRMLGADREFIEARRR yielded a protein stability index of 2.87. EMVPALPPKRMLGADREFIEARRR gave a protein stability index of 3.56. Work on CMVPALPPKRMLGADREFIEARRR yielded a protein stability index of 3.28. With AMVPALPPKRMLGADREFIEARRR the protein stability index was 3.86.
